According to publication doi:10.1101/2020.11.13.381350 (bioRxiv, 2020):
Values joined by “and” are separate entries in the source; they are usually repeats but may differ in a detail not shown here. Equal entries are not always repeated.

Target: the molecule itself
Test: cross-linking

B1: 6xHis-WT-mVP40 (Marburg virus matrix protein VP40, wild type) (natural protein)
chain: MASSSNYNTYMQYLNPPPYADHGANQLIPADQLSNQQGITPNYVGDLNLDDQFKGNVCHAFTLEAIIDISAYNERTVKGVPAWLPLGIMSNFEYPLAHTVAALLTGSYTITQFTHNGQKFVRVNRLGTGIPAHPLRMLREGNQAFIQNMVIPRNFSTNQFTYNLTNLVLSVQKLPDDAWRPSKDKLIGNTMHPAVSIHPNLPPIVLPTVKKQAYRQHKNPNNGPLLAISGILHQLRVEKVPEKTSLFRISLPADMFSVKEGMMKKRGENSPVVYFQAPENFPLNGFNNRQVVLAYANPTLSAV
stoichiometry N: 6 and 4
